Reference: patent US20210206856A1 (PANDION OPERATIONS, published 2021)
Changes are numbered by the printed parent chain.

T1: human MAdCAM expressed on cells (human, UniProt Q13477 19-382)
T1 construct: whole, on cells; also called MADCAM1
T1 sequence (looked up): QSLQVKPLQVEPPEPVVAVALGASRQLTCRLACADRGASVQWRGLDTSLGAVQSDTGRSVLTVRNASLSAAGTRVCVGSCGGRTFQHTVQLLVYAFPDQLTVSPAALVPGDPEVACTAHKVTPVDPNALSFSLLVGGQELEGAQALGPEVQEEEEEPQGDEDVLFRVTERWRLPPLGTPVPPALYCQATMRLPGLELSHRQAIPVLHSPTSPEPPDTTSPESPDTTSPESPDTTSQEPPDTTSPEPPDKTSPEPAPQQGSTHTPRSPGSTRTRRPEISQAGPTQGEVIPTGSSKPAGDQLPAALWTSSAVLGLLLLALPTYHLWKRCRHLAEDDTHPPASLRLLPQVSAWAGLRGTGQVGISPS

T2: mouse MAdCAM expressed on cells (mouse, UniProt Q61826 22-405)
T2 construct: whole, on cells
T2 sequence (looked up): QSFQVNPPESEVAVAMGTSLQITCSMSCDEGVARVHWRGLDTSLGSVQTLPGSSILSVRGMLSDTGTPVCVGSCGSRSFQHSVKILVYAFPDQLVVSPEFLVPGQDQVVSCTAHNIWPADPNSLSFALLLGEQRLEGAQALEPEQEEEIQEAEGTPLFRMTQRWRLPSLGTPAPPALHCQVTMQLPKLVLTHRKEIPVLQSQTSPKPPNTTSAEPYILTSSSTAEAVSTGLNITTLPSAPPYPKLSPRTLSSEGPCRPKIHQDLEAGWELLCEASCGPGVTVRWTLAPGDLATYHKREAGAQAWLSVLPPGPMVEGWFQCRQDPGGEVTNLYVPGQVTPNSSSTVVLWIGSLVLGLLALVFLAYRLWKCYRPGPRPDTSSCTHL

B1: MAdCAM Antibody Table 2 Clone 21 (antibody, human IgG1, V domains shown)
VH: EVQLVESGGGLVKPGGSLRLSCAASGFTFSSYWMSWVRQAPGKGLEWVSYISGDSGYTNYAAPVKGRFTISRDDSKNTLYLQMNSLKTEDTAVYYCARANSSGWYDWYFDLWGRGTLVTVSS
VL: not shown
B2: MAdCAM Antibody Table 2 Clone 26 (antibody, V domains shown)
VH: EVQLLESGGGLVQPGGSLRLSCAASGFTFSSYAMSWVRQAPGKGLEWVSYISSSSTYTNYADSVKGRFTISRDNSKNTLYLQMNSLRAEDTAVYYCARANSSSWYDWYFDLWGQGTLVTVSS
VL: not shown
B3: MAdCAM Antibody Table 2 Clone 44 (antibody, human IgG1, V domains shown)
VH: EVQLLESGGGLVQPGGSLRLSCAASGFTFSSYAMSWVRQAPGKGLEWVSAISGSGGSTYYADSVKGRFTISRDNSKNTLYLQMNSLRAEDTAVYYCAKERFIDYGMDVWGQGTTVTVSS
VL: DIQMTQSPSSLSASVGDRVTITCQASQDISNYLNWYQQKPGKAPKLLIYAASSLQSGVPSRFSGSGSGTDFTLTISSLQPEDFATYYCQQTYSGWTFGPGTKVDIK
B4: MAdCAM Antibody Table 2 Clone 15 (antibody, human IgG1, V domains shown)
VH: QVQLVQSGAEVKKPGASVKVSCKASGYTFTGYYMHWVRQAPGQGLEWMGWIGPNSGDTNYAQKFQGRVTMTRDTSTSTVYMELSSLRSEDTAVYYCARDLDHNWYFDLWGRGTLVTVSS
VL: DIVMTQSPLSLPVTPGEPASISCRSSQSLLHSNGYNYLDWYLQKPGQSPQLLIYSSSNRAPGVPDRFSGSGSGTDFTLKISRVEAEDVGVYYCMQALHIPLTFGGGTKVEIK
B5: MAdCAM Antibody Table 2 Clone 12 (antibody, human IgG1, V domains shown)
VH: QVQLVQSGAEVKKPGASVKVSCKASGYTLTTWYMYWVRQAPGQGLEWMGWINPNRGATNYAQKFQGRVTMTRDTSTSTVYMELSSLRSEDTAVYYCAKGDLWGAMDVWGQGTLVTVSS
VL: DIQMTQSPSSLSASVGDRVTITCRASDNIGSWLAWYQQKPGKAPKLLIYAASSLQSGVPSRFSGSGSGTDFTLTISSLQPEDFATYYCQQGYSTPPTFGQGTKVEIK
B6: MAdCAM Antibody Table 2 Clone 42 (antibody, human IgG1, V domains shown)
VH: QVQLVQSGAEVKKPGASVKVSCKASGYTLTDYYMHWVRQAPGQGLEWMGIINPSGGSTSYAQKFQGRVTMTRDTSTSTVYMELSSLRSEDTAVYYCAREEYSSSSGYFDYWGQGTLVTVSS
VL: B5 VL with D27Q, N28G, G30S, G91S, P96L
B7: MAdCAM Antibody Table 2 Clone 34 (antibody, human IgG1, V domains shown)
VH: QVQLVQSGAEVKKPGASVKVSCKASGYTFTGYYIHWVRQAPGQGLEWMGWMNPNSGNTGYAQKFQGRVTMTRDTSTSTVYMELSSLRSEDTAVYYCARDPGFLGYCSGGSCYDGWFDPWGQGTLVTVSS
VL: B5 VL with D27Q, N28S, G30S, W32Y, A34H, G91S, S93T, T94A, P96Y, V104L
B8: MAdCAM Antibody Table 2 Clone 25 (antibody, human IgG1, V domains shown)
VH: EVQLLESGGGLVQPGGSLRLSCAASGFTFSNAWMSWVRQAPGKGLEWVSTIVGNGGATYYADSVKGRFTISRDNSKNTLYLQMNSLRAEDTAVYYCARDNPLRWQGMDVWGQGTLVTVSS
VL: B5 VL with D27Q, N28D, G30S, S31N, W32Y, A34N, G91S, T94I, Q100P, E105D
B9: MAdCAM Antibody Table 2 Clone 30 (antibody, human IgG1, V domains shown)
VH: EVQLLESGGGLVQPGGSLRLSCAASGFTFSSYAMHWVRQAPGKGLEWVSGISGSGGSAYYADSVKGRFTISRDNSKNTLYLQMNSLRAEDTAVYYCATSQAPVDYYYYGMDVWGQGTTVTVSS
VL: B5 VL with D27Q, N28S, G30S, S53N, S56R, G91S, T94I, P96I
B10: MAdCAM Antibody Table 2 Clone 43 (antibody, human IgG1, V domains shown)
VH: QVQLVQSGAEVKKPGASVKVSCKASGYTFTSYGISWVRQAPGQGLEWMGWMHPKSGDTGLTQKFQGRVTMTRDTSTSTVYMELSSLRSEDTAVYYCARDTPYYYYGMDVWGQGTTVTVSS
VL: B5 VL with D27Q, N28S, G30S, G91S, T94V, P96I
B11: MAdCAM Antibody Table 2 Clone 38 (antibody, human IgG1, V domains shown)
VH: QVQLVQSGAEVKKPGASVKVSCKASGYTFTDYFLHWVRQAPGQGLEWMGWMNPTSGNTGYAQKFQGRVTMTRDTSTSTVYMELSSLRSEDTAVYYCAREGEGSGFDYWGQGTLVTVSS
VL: B5 VL with D27Q, N28G, G30N, A50D, S53N, Q55E, S56T, G91S, P96L, Q100G
B12: MAdCAM Antibody Table 2 Clone 39 (antibody, human IgG1, V domains shown)
VH: QVQLVQSGAEVKKPGASVKVSCKASGYTFTSYYMHWVRQAPGQGLEWMAWMNPNSGNTGYAQKFQGRVTMTRDTSTSTVYMELSSLRSEDTAVYYCARDYDFWSGSLGYWGQGTLVTVSS
VL: B5 VL with D27Q, N28G, G30S, S31N, W32Y, G91S, P96W
B13: MAdCAM Antibody Table 2 Clone 41 (antibody, human IgG1, V domains shown)
VH: QVQLVQSGAEVKKPGASVKVSCKASGYTFTSYYMHWVRQAPGQGLEWMGIINPSGGSTSYAQKFQGRVTMTRDTSTSTVYMELSSLRSEDTAVYYCARDTGYSYGRYYYYGMDVWGQGTLVTVSS
VL: B5 VL with D27Q, N28S, S31R, A50D, S53N, G91S, T94I, P96I
B14: MAdCAM Antibody Table 2 Clone 13 (antibody, human IgG1, V domains shown)
VH: QVQLVQSGAEVKKPGASVKVSCKASGYTFTTYYMHWVRQAPGQGLEWMGGFDPEDGETIYAQKFQGRVTMTRDTSTSTVYMELSSLRSEDTAVYYCARHAVAGAVGAGYYYYGMDVWGQGTMVTVSS
VL: B5 VL with D27E, N28S, G30S, S31N, S53T, G91S, T94V, P96F, Q100P, E105D
B15: MAdCAM Antibody Table 2 Clone 40 (antibody, human IgG1, V domains shown)
VH: B5 VH
VL: B5 VL
B16: MAdCAM Antibody Table 2 Clone 33 (antibody, human IgG1, V domains shown)
VH: B5 VH with L113T
VL: B5 VL
B17: MAdCAM Antibody Table 2 Clone 36 (antibody, human IgG1, V domains shown)
VH: EVQLLESGGGLVQPGGSLRLSCAASGFTFDDYALHWVRQAPGKGLEWVSAISGDGRSTTYADSVKGRFTISRDNSKNTLYLQMNSLRAEDTAVYYCARDGTVNGATGWFDPWGQGTLVTVSS
VL: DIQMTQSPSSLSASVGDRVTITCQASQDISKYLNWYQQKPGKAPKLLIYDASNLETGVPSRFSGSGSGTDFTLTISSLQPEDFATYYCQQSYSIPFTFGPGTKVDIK
B18: MAdCAM Antibody Table 2 Clone 16 (antibody, human IgG1, V domains shown)
VH: EVQLLESGGGLVQPGGSLRLSCAASGFTFDDYAMHWVRQAPGKGLEWVSYIDASGTTIYYADSVKGRFTISRDNSKNTLYLQMNSLRAEDTAVYYCAKDQAAAGYWYFDLWGRGTLVTVSS
VL: DIQMTQSPSSLSASVGDRVTITCQASQDISNYLNWYQQKPGKAPKLLIYKASTLESGVPSRFSGSGSGTDFTLTISSLQPEDFATYYCQQSYSTPITFGQGTRLEIK
B19: MAdCAM Antibody Table 2 Clone 37 (antibody, human IgG1, V domains shown)
VH: EVQLLESGGGLVQPGGSLRLSCAASGFTFSDYGMPWVRQAPGKGLEWVSAISGSGGSTYYADSVKGRFTISRDNSKNTLYLQMNSLRAEDTAVYYCARDGGWQPAAILDYWGQGTLVTVSS
VL: B18 VL with Q24R, D28G, Y32N, K50D, T53N, S56T, I96L, R103K, L104V
B20: MAdCAM Antibody Table 2 Clone 19 (antibody, human IgG1, V domains shown)
VH: EVQLLESGGGLVQPGGSLRLSCAASGFTFEDYAMHWVRQAPGKGLEWVSYLNSDGGSTSYADSVKGRFTISRDNSKNTLYLQMNSLRAEDTAVYYCAKDYCTNGVCAFDYWGQGTLVTVSS
VL: B18 VL with Q24R, D28S, N31T, K50D, T53N, S56T, S93T, T94I
B21: MAdCAM Antibody Table 2 Clone 59 (antibody, human IgG1, V domains shown)
VH: B19 VH with T28S, P35H
VL: B18 VL with Q24R, D28G, Y32N, K50D, T53N, S56T, I96L, Q100G, R103K, L104V
B22: MAdCAM Antibody Table 2 Clone 18 (antibody, human IgG1, V domains shown)
VH: QVQLVQSGAEVKKPGSSVKVSCKASGYTFTNYYMHWVRQAPGQGLEWMGGIIPIVDRVKYAQKFQGRVTITADESTSTAYMELSSLRSEDTAVYYCAKGRYTVNYYYGMDVWGQGTTVTVSS
VL: B18 VL with S26N, K50R, T53K, S56A, Y92S, S93E, T94I, I96Y, T97S, R103K

Target: T1, human MAdCAM expressed on cells
Experiment: cell binding

| binding result | Binder |
| --- | --- |
| binds | B1 |
| binds | B2 |
| binds | B3 |
| binds | B4 |
| binds | B5 |
| binds | B6 |
| binds | B7 |
| binds | B8 |
| binds | B9 |
| binds | B10 |
| binds | B11 |
| binds | B12 |
| binds | B13 |
| binds | B14 |
| binds | B15 |
| binds | B16 |
| binds | B17 |
| binds | B18 |
| binds | B19 |
| binds | B20 |
| binds | B21 |
| binds | B22 |

Target: T2, mouse MAdCAM expressed on cells
Experiment: cell binding

| binding result | Binder |
| --- | --- |
| no binding | B1 |
| no binding | B2 |
| no binding | B3 |
| no binding | B4 |
| no binding | B5 |
| no binding | B6 |
| no binding | B7 |
| no binding | B8 |
| binds | B9 |
| no binding | B10 |
| no binding | B11 |
| no binding | B12 |
| no binding | B13 |
| no binding | B14 |
| no binding | B15 |
| no binding | B16 |
| binds | B17 |
| no binding | B18 |
| no binding | B19 |
| no binding | B20 |
| no binding | B21 |
| no binding | B22 |
